Measurements taken from doi:10.1101/2020.01.08.898262 (bioRxiv, 2020).

Target: the molecule itself
Assay: crystal structure

B1: Salmonella typhi outer membrane phospholipase A (OmpLA), leaderless (21Q-289F) (enzyme)
chain: QEATIKEVHDAPAVRGSIIANMLQEHDNPFTLYPYDTNYLIYTNTSDLNKEAISTYNWSENARKDEVKFQLSLAFPLWRGILGPNSVLGASYTQKSWWQLSNSKESSPFRETNYEPQLFLGFATDYRFAGWTLRDVEMGYNHDSNGRSDPTSRSWNRLYTRLMAENGNWLVEVKPWYVIGSTDDNPDITKYMGYYQLKIGYHLGEAVLSAKGQYNWNTGYGGAEVGLSYPVTKHVRLYTQVYSGYGESLIDYNFNQTRVGVGVMLNDIF
B1: binds.
